Patent publication US20230119254A1, “SYNERGISTIC AND TARGETING COMPOSITIONS FOR TREATMENT OF ARTERIAL AND VENOUS THROMBOSIS” (AstraZeneca AB, priority 2020, published 2023)

What was measured:
[1] = system: human platelet-rich plasma (PRP); test: ADP-induced human platelet aggregation in platelet-rich plasma; format: cell-based; conditions: ADP-activated, light transmission, 6 min
Description: FIGS. 1A and 1B show the effect of apyrase APT102 used as such and of a fusion protein thereof, APT402, on platelet aggregation in an ex vivo reaction mixture comprising human platelet-rich plasma (PRP) activated with 20 μM ADP. […] X axis is the assay time (6 min duration), Y axis is the light transmission. […] Arrows indicate addition of ADP and apyrases.
(§1) The inhibitory activity on FX activation was assayed using peripheral blood mononuclear cells (PBMC) purified from normal human donors and anesthetized rabbits by standard methods. […] As expected, APT102 had no effect on PBMC pro-coagulant activity.

[2] = system: peripheral blood mononuclear cells (PBMC) from normal human donors; test: LPS-induced Factor X activation in human PBMC; format: cell-based; conditions: human PBMCs
Description: (§2) Peripheral blood mononuclear cells were incubated with LPS (1 mg/ml) to induce tissue factor expression and FX activation measured in the presence of FVII, FX and chromogenic substrate 52765.
as §1

[3] = system: peripheral blood mononuclear cells (PBMC) from anesthetized rabbits; test: LPS-induced Factor X activation in rabbit PBMC; format: cell-based; conditions: rabbit PBMCs
Description: as §2, §1

[4] = system: thrombin generation in human platelet rich plasma; test: Thrombin generation by calibrated automated thrombography (CAT) in ADP-activated human PRP; format: cell-based; conditions: 20 uM ADP-activated human platelets, equal molar concentrations
Description: Shown are thrombograms of nanomolar thrombin that were generated in human platelet rich plasma activated with […].
Thrombin generation in citrated human platelet rich plasma (PRP) was quantified by calibrated automated thrombography (CAT) using the Thrombinoscope system (Synapse), according to methods developed by Hemker et al. Aliquots of PRP were incubated with agents for 15 min at room temperature, and then for 5 min at 37° C. in wells of 96-well plates. Thrombin generation was initiated by addition of 0.5 pM tissue factor and CaCl2 to 16.7 mM and monitored in a microtiter plate fluorometer (Fluoroskan Ascent, Thermo Electron Corp., Vantaa, Finland). Thrombograms (nM thrombin generated vs. time) were generated using the Thrombinoscope software, as were key thrombin generation parameters: lag time to onset of thrombin generation (min), peak thrombin concentration (nM), time to peak thrombin (min), and endogenous thrombin potential (ETP; integrated area under the thrombogram curve).
The effects of APT102, annexin V, APT102+annexin V, and APT402 at equal molar concentrations on thrombin generation from 20 uM ADP-activated human platelets were compared using CAT assays (FIG. 3). […] These features were mimicked by APT402.

[5] = system: IVC fibrosis (collagen deposition); test: Chronic murine electrolytic injury model (EIM) of DVT, fibrosis; format: in vivo; conditions: mice, 1.0 mg/kg ip bolus daily for 14 days
Description: In a chronic fibrotic study, mice were randomized and blinded into the following groups (n=5-12/group).
Collagen deposition was stained with Masson's trichrome 14 days post DVT induction.

B1: APT102: soluble apyrase, enhanced form of soluble CD39L3 R67G T69R (SEQ ID NO: 2) (protein)
chain: EVLPPGLKYGIVLDAGSSGTRVYVYQWPAEKENNTGVVSQTFKCSVKGSGISSYGNNPQDVPRAFEECMQKVKGQVPSHLHGSTPIHLGATAGMRLLRLQNETAANEVLESIQSYFKSQPFDFRGAQIISGQEEGVYGWITANYLMGNFLEKNLWHMWVHPHGVETTGALDLGGASTQISFVAGEKMDLNTSDIMQVSLYGYVYTLYTHSFQCYGRNEAEKKFLAMLLQNSPTKNHLTNPCYPRDYSISFTMGHVFDSLCTVDQRPESYNPNDVITFEGTGDPSLCKEKVASIFDFKACHDQETCSFDGVYQPKIKGPFVAFAGFYYTASALNLSGSFSLDTFNSSTWNFCSQNWSQLPLLLPKFDEVYARSYCFSANYIYHLFVNGYKFTEETWPQIHFEKEVGNSSIAWSLGYMLSLTNQIPAESPLIRLPIEPPV
[1]
  inhibition of ADP-induced human platelet aggregation: dose-dependently inhibits
[2]
  reduction in LPS-induced FX activation: no effect
[3]
  reduction in LPS-induced FX activation: no effect
[4]
  peak thrombin concentration: modest inhibitory effect
  time to peak thrombin: modest inhibitory effect
[5]
  deaths, increased bleeding or gross side effects: no deaths or increased bleeding or gross side effects
[5]; Masson's trichrome 14 days post DVT induction
  reduction of collagen deposition: 11%
